Assay results: patent publication US20260242478A1 (published 2026)

B1: Phage-1067 (peptide)
peptide: YCDGHSPEYMQKCL
notes: Clonal phage supernatant; not shown: fused to the pIII filament protein of the bacteriophage
B2: Phage-1072 (peptide)
peptide: YCDGHNWEYMEKCL
notes: as for B1
B3: Phage-1073 (peptide)
peptide: YCDGHAEQYMSKCL
notes: as for B1
B4: Phage-1066 (peptide)
peptide: YCDGHDARYMEKCL
notes: as for B1
B5: Phage-1074 (peptide)
peptide: YCDGLFQLYMMKCL
notes: as for B1
B6: Phage-1064 (peptide)
peptide: YCEGHSAEYIAKCL
notes: as for B1
B7: Phage-1071 (peptide)
peptide: YCEGHHPWYVQKCL
notes: as for B1
B8: Phage-1063 (peptide)
peptide: YCDGHLMEYKAKCL
notes: as for B1
B9: Phage-1069 (peptide)
peptide: YCSGHLPEYMDKCL
notes: as for B1
B10: Phage-1062 (peptide)
peptide: YCAGHSAEYMSKCL
notes: as for B1
B11: Phage-1068 (peptide)
peptide: YCNGHLPEYMSKCI
notes: as for B1
B12: Phage-1070 (peptide)
peptide: YCDGHSLEYMLKCL
notes: as for B1
B13: Phage-1065 (peptide)
peptide: YCDGHSPEHMGKCL
notes: as for B1

What follows are binders tested against T1, Anti-CD28 Fab (SEQ ID NOs: 696, 697) (assay: phage ELISA as above with wells pre-incubated with CD28 antigen as competitor).
T1 construct: In the phage ELISA the Fab was biotinylated and captured on neutravidin coated plates
T1 sequence (VH, as listed by the source, chain 1 of 2): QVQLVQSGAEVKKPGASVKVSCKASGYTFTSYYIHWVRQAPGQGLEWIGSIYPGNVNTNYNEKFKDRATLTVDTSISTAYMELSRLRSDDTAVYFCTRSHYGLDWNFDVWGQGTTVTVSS
T1 sequence (VL, as listed by the source, chain 2 of 2): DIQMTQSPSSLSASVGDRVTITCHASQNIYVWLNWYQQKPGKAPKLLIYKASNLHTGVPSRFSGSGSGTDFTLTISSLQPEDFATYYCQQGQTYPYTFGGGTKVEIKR
Method: (§1) After panning, phage infected bacteria were plated out and colonies picked into 96 well blocks. Clonal phage was then amplified and separated from bacterial cells via centrifugation.
(§2) Clonal phage were harvested as crude supematants and screened via standard ELISAs. […] Prior to the addition of clonal phage, wells were incubated with blocking buffer and CD28 antigen or blocking buffer alone. Without washing or aspirating, clonal phage supematants were then added to the wells and incubated for a short time. Wells were then washed followed by detection of bound phage using a horse radish conjugated anti-M13 antibody. Clonal phage of interest were then sent for sequence analysis.

Binder | Anti-CD28 Fab signal in the presence of CD28 (phage binding ELISA)
YCDGHLPEYMNQCL (Tested as clonal phage supernatant) [Phage-1047] | 0.07
YCDGHNFQYMEKCL (Tested as clonal phage supernatant) [Phage-1048] | 0.06
YCEGHSQEYMAKCL (Tested as clonal phage supernatant) [Phage-1046] | 0.06

What follows are binders tested against T2, Anti-CD28 Fab (SEQ ID NOs: 696, 697) (assay: phage ELISA, clonal phage on biotinylated anti-CD28 Fab captured on neutravidin plates;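 also: crude clonal phage supernatants added to wells pretreated with CD28 antigen or with blocking buffer only, bound phage detected by HRP-linked anti-M13 antibody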).
T2 construct: In the phage ELISA the Fab was biotinylated and captured on neutravidin coated plates
T2 sequence (VH, as listed by the source, chain 1 of 2): as the sequence (VH, as listed by the source, chain 1 of 2) above
T2 sequence (VL, as listed by the source, chain 2 of 2): as the sequence (VL, as listed by the source, chain 2 of 2) above
Method: as §1, §2

Binder | Anti-CD28 Fab signal (phage binding ELISA)
YCDGHLDEYMLKCL [Phage-1053] | 1.43
YCDGHAPEYLGKCL [Phage-1059] | 1.41
YCVGHLPQYMQKCL [Phage-1049] | 1.43
YCEGHSQQYMQKCL [Phage-1055] | 1.42
YCDGHSPAFIQKCL [Phage-1056] | 1.42
YCLGHSWPYIHKCY [Phage-1052] | 1.43
YCAGHAEEYLEKCL [Phage-1060] | 1.41
YCQGHSPNYITKCF [Phage-1058] | 1.41
YCDGHSLEYIDKCM [Phage-1057] | 1.42
YCDGHTPEYMWKCL [Phage-1054] | 1.43
YCDGHSHEYMQKCL [Phage-1061] | 1.41
YCDGHSLEYIEKCL [Phage-1051] | 1.43
YCDGHLPEYIAKCQ [Phage-1050] | 1.43

Each binder was assayed against T3, Anti-CD28 Fab (SEQ ID NOs: 696, 697) in the same assay as above.
T3 construct: Biotinylated and captured on neutravidin coated plates in the phage ELISA
T3 sequence (VH, as listed by the source, chain 1 of 2): as the sequence (VH, as listed by the source, chain 1 of 2) above
T3 sequence (VL, as listed by the source, chain 2 of 2): as the sequence (VL, as listed by the source, chain 2 of 2) above
Method: as §1, §2

Binder | Anti-CD28 Fab signal (phage binding ELISA)
YCEGHSEEYMAKCL [Phage-1132] | 1.26
YCDGHSSVYMLKCL [Phage-1130] | 1.26
YCEGHHRIYMQKCL [Phage-1131] | 1.26
YCEGHMSIYMQKCL [Phage-1133] | 1.25

What follows are binders tested against T2, Anti-CD28 Fab (SEQ ID NOs: 696, 697) (assay: phage ELISA on captured anti-CD28 Fab, wells pre-incubated with CD28 antigen as competitor;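 also: crude clonal phage supernatants added without washing, bound phage read out by HRP-coupled anti-M13 antibody, reference wells given blocking buffer only instead of CD28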).
Method: as §1, §2

Binder | Anti-CD28 Fab signal in the presence of CD28 (phage binding ELISA)
YCDGHLDEYMLKCL [Phage-1053] | 0.06
YCDGHAPEYLGKCL [Phage-1059] | 0.06
YCVGHLPQYMQKCL [Phage-1049] | 0.06
YCEGHSQQYMQKCL [Phage-1055] | 0.08
YCDGHSPAFIQKCL [Phage-1056] | 0.08
YCLGHSWPYIHKCY [Phage-1052] | 0.07
YCAGHAEEYLEKCL [Phage-1060] | 0.15
YCQGHSPNYITKCF [Phage-1058] | 0.06
YCDGHSLEYIDKCM [Phage-1057] | 0.09
YCDGHTPEYMWKCL [Phage-1054] | 0.06
YCDGHSHEYMQKCL [Phage-1061] | 0.06
YCDGHSLEYIEKCL [Phage-1051] | 0.06
YCDGHLPEYIAKCQ [Phage-1050] | 0.07

These binders were tested against T3, Anti-CD28 Fab (SEQ ID NOs: 696, 697) in the same assay as above.
Method: as §1, §2

Binder | Anti-CD28 Fab signal in the presence of CD28 (phage binding ELISA)
YCEGHSEEYMAKCL [Phage-1132] | 0.07
YCDGHSSVYMLKCL [Phage-1130] | 0.06
YCEGHHRIYMQKCL [Phage-1131] | 0.07
YCEGHMSIYMQKCL [Phage-1133] | 0.07

What follows are binders tested against Anti-CD28 Fab (SEQ ID NOs: 696, 697) (assay: phage ELISA; Fab-coated wells pre-incubated with CD28 antigen as competitor, anti-M13 HRP detection;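 also: crude clonal phage supernatants screened by ELISA, comparing wells pre-treated with CD28 antigen in blocker against wells given blocker only, bound phage read via HRP-linked anti-M13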).
Target sequence in this assay (VH, as listed by the source, chain 1 of 2): as the sequence (VH, as listed by the source, chain 1 of 2) above
Target sequence in this assay (VL, as listed by the source, chain 2 of 2): as the sequence (VL, as listed by the source, chain 2 of 2) above
Method: as §1, §2

Binder | Anti-CD28 Fab signal in the presence of CD28 (phage binding ELISA)
YCDGHLLQYMHKCL (Tested as clonal phage supernatant) [Phage-1094] | 0.07
YCDGHAPQYMRKCL (Tested as clonal phage supernatant) [Phage-1101] | 0.08
YCAGHASEYMAKCL (Tested as clonal phage supernatant) [Phage-1100] | 0.08
YCDGHLPEYMQKCL (Tested as clonal phage supernatant) [Phage-1093] | 0.08
YCDGHLPRYMAKCL (Tested as clonal phage supernatant) [Phage-1092] | 0.1
YCDGHAPLYIQKCL (Tested as clonal phage supernatant) [Phage-1095] | 0.06
YCDGHSEEFMWKCL (Tested as clonal phage supernatant) [Phage-1090] | 0.06
YCEGHSPEYMHKCL (Tested as clonal phage supernatant) [Phage-1097] | 0.09
YCAGHVDQYLWKCL (Tested as clonal phage supernatant) [Phage-1099] | 0.06
YCDGHSKEYMAKCL (Tested as clonal phage supernatant) [Phage-1096] | 0.06
YCEGHMEKYMEKCL (Tested as clonal phage supernatant) [Phage-1091] | 0.11
YCDGHMVQYMAKCL (Tested as clonal phage supernatant) [Phage-1089] | 0.07
YCDGHSEAYIEKCL (Tested as clonal phage supernatant) [Phage-1098] | 0.06

The binders below were run against T4, Anti-CD28 Fab (SEQ ID NOs: 696, 697) (assay: phage ELISA; captured anti-CD28 Fab pre-incubated with CD28 antigen as competitor, anti-M13 HRP detection;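 also: crude clonal phage supernatants screened by ELISA, with wells pre-incubated with CD28 antigen in blocking buffer, compared against wells given blocking buffer alone as control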).
T4 construct: In the phage ELISA the Fab was biotinylated and captured on neutravidin coated plates
T4 sequence (VH, as listed by the source, chain 1 of 2): as the sequence (VH, as listed by the source, chain 1 of 2) above
T4 sequence (VL, as listed by the source, chain 2 of 2): as the sequence (VL, as listed by the source, chain 2 of 2) above
Method: as §1, §2

Binder | Anti-CD28 Fab signal in the presence of CD28 (phage binding ELISA)
B1 | 0.53
B2 | 0.05
B3 | 0.07
B4 | 0.06
B5 | 0.07
B6 | 0.09
B7 | 0.07
B8 | 0.06
B9 | 0.07
B10 | 0.07
B11 | 0.07
B12 | 0.07
B13 | 0.09

What follows are binders tested against T1, Anti-CD28 Fab (SEQ ID NOs: 696, 697) (assay: phage ELISA; biotinylated anti-CD28 Fab on neutravidin plate, clonal phage supernatant, anti-M13 HRP detection;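 also: crude supernatants of single phage clones picked after panning were screened for binding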).

Binder | Anti-CD28 Fab signal (phage binding ELISA)
YCDGHLPEYMNQCL (Tested as clonal phage supernatant) [Phage-1047] | 1.44
YCDGHNFQYMEKCL (Tested as clonal phage supernatant) [Phage-1048] | 1.44
YCEGHSQEYMAKCL (Tested as clonal phage supernatant) [Phage-1046] | 1.44

These binders were tested against T4, Anti-CD28 Fab (SEQ ID NOs: 696, 697) in the same assay as above.

Binder | Anti-CD28 Fab signal (phage binding ELISA)
B1 | 1.4
B2 | 1.38
B3 | 1.38
B4 | 1.4
B5 | 1.38
B6 | 1.41
B7 | 1.39
B8 | 1.41
B9 | 1.39
B10 | 1.41
B11 | 1.4
B12 | 1.39
B13 | 1.4

These binders were tested against Anti-CD28 Fab (SEQ ID NOs: 696, 697) in the same assay as above.
Target sequence in this assay (VH, as listed by the source, chain 1 of 2): as the sequence (VH, as listed by the source, chain 1 of 2) above
Target sequence in this assay (VL, as listed by the source, chain 2 of 2): as the sequence (VL, as listed by the source, chain 2 of 2) above

Binder | Anti-CD28 Fab signal (phage binding ELISA)
YCDGHLLQYMHKCL (Tested as clonal phage supernatant) [Phage-1094] | 1.35
YCDGHAPQYMRKCL (Tested as clonal phage supernatant) [Phage-1101] | 1.33
YCAGHASEYMAKCL (Tested as clonal phage supernatant) [Phage-1100] | 1.33
YCDGHLPEYMQKCL (Tested as clonal phage supernatant) [Phage-1093] | 1.35
YCDGHLPRYMAKCL (Tested as clonal phage supernatant) [Phage-1092] | 1.35
YCDGHAPLYIQKCL (Tested as clonal phage supernatant) [Phage-1095] | 1.34
YCDGHSEEFMWKCL (Tested as clonal phage supernatant) [Phage-1090] | 1.35
YCEGHSPEYMHKCL (Tested as clonal phage supernatant) [Phage-1097] | 1.34
YCAGHVDQYLWKCL (Tested as clonal phage supernatant) [Phage-1099] | 1.34
YCDGHSKEYMAKCL (Tested as clonal phage supernatant) [Phage-1096] | 1.34
YCEGHMEKYMEKCL (Tested as clonal phage supernatant) [Phage-1091] | 1.35
YCDGHMVQYMAKCL (Tested as clonal phage supernatant) [Phage-1089] | 1.36
YCDGHSEAYIEKCL (Tested as clonal phage supernatant) [Phage-1098] | 1.34
